Consider 21 sequences from the DeepSol protein solubility set.

A short description of this data set: soluble on expression in E. coli; label from the status in PepcDB or PDB records.
“MKLMQIRKPLLKSSLLDQNLTEEEVNMKFVQDLLNWVDEMQVQLDRTEWGSDLPSVESHLENHKNVHRAIEEFESSLKEAKISEIQMTAPLKLSYTDKLHRLESQYAKLLNTSRNQERHLDTLHNFVTRATNELIWLNEKEESEVAYDWSERNSSVARKKSYHAELMRELEQKEESIKAVQEIAEQLLLENHPARLTIEAYRAAMQTQWSWILQLCQCVEQHIQE”: the “soluble on expression in E. coli” value was “soluble”. In the case of “MKLNKQNLTQLAPEVKLPAYTLADTRQGIAHIGVGGFHRAHQAYYTDALMNTGEGLDWSICGVGLRSEDRKARDDLAGQDYLFTLYELGDTDDTEVRVIGSISDMLLAEDSAQALIDKLASPEIRIVSLTITEGGYCIDDSNGEFMAHLPQIQHDLAHPSSPKTVFGFICAALTQRRAAGIPAFTVMSCDNLPHNGAVTRKALLAFAALHNAELHDWIKAHVSFPNAMVDRITPMTSTAHRLQLHDEHGIDDAWPVVCEPFVQWVLEDKFVNGRPAWEKVGVQFTDDVTPYEEMKIGLLNGSHLALTYLGFLKGYRFVHETMNDPLFVAYMRAYMDLDVTPNLAPVPGIDLTDYKQTLVDRFSNQAIADQLERVCSDGSSKFPKFTVPTINRLIADGRETERAALVVAAWALYLKGVDENGVSYTIPDPRAEFCQGLVSDDALISQRLLAVEEIFGTAIPNSPEFVAAFERCYGSLRDNGVTTTLKHLLKKPV” it was “soluble”; in that of “MKLQQLRYIVEVVNHNLNVSSTAEGLYTSQPGISKQVRMLEDELGIQIFARSGKHLTQVTPAGQEIIRIAREVLSKVDAIKSVAGEHTWPDKGSLYVATTHTQARYALPGVIKGFIERYPRVSLHMHQGSPTQIAEAVSKGNADFAIATEALHLYDDLVMLPCYHWNRSIVVTPEHPLATKGSVSIEELAQYPLVTYTFGFTGRSELDTAFNRAGLTPRIVFTATDADVIKTYVRLGLGVGVIASMAVDPVSDPDLVKLDANGIFSHSTTKIGFRRSTFLRSYMYDFIQRFAPHLTRDVVDTAVALRSNEDIEAMFKDIKLPEK”, “soluble”; in that of “MKLREQINSISGFRYVIDELCIHSSVGRRCLMEQEFLTEASDIEVLLSRVEIAISYQADQRKQKGLDEIAHKLMQLRDIQGTIYSLSRHVVCTDIDFFEIKFLAILSEDIRDLIRFYQLDDLSSPLPDLSHIVSVLDPEEKKIPHFYIYDAYS”, “not soluble”. Regarding “MKLRLSALALGTTLLVGCASSGTDQQGRSDPLEGFNRTMYNFNFNVLDPYIVRPVAVAWRDYVPQPARNGLSNFTGNLEEPAVMVNYFLQGDPYQGMVHFTRFFLNTILGMGGFIDVAGMANPKLQRTEPHRFGSTLGHYGVGYGPYVQLPFYGSFTLRDDGGDMADGLYPVLSWLTWPMSVGKWTLEGIETRAQLLDSDGLLRQSSDPYIMVREAYFQRHDFIANGGELKPQENPNAQAIQDDLKDIDSE”, the “soluble on expression in E. coli” value is recorded as “not soluble”. In the case of “MKLSAQSHASIASSLREAVDKYIADGERTVVTDIHLQPKQDSGELVIFNDDDEELSRTIIEEWVDYSEDDFYTIVERILRGEINALKDTGVLDKLAIMKPYSFVLVDEDRETVTELLLIDDEDTLLLNDELLKGLDEELDAFLKDLLEKLEHHHHHH”, the “soluble on expression in E. coli” value is given as “soluble”. With “MKLSIVIVNYRVPYFLEQCLLSVRKSAQGIDTEVWVVDNNSGDGSVEYLQSRFPEVHFVANEENVGFSRANNQAIRLSKGQYVLLLNPDTLIGESTLRTVVDFMDSKPNAGGLGVKMLNGHGRFLPESKRGFPSPWVSFCKLSGLNRLFPHSSRFNRYHLSYLSRDEVHKVEVLSGAFMLMRREALDKVGLLDERFFMYGEDIDLSYRLILGGYDNYYYPTPILHYKGESSSVSDVKYLRSFYGAMGLFFDKYYRNRMNPLLHGLINVVIKARTALALMLRSLRKVPAAEKPAKIFYWHPSEGEAAISAYHDRSHILINTDEVTCDRLLLTMEKLADRKHTFHLTNDTTKRVISP” the entry was “not soluble”; with “MKLSPREADGYFARPDAGKTGILIHGADAMRIALKRQQIIAALLGPGGEEEMRLTRMPGAELRKDAAQLLDAVKAVGFFPGPRVVFVEDCPETSAPAVLTALEDWQPGDAQIVVTAGQLKPSSKIRKAFETHPNAYAAGIYDDPPSRAEIERMLSAAGIRDVPPEPMTVLSDLARDLGPGDFAQTMEKLALYKLGDTAPLVLEDIAACAPRSTEAALDDVLNVVAEGKEGEIGPLIRRLQAQGTTPVSLCIGATRHFRTLYTCASAPGGPSQGIGALRPPVFGPRRDRILNQAQRWGARRLEAALTVLTDTDLALRSAGQSAPQMALVERAMIRLAWLSRSRLEHHHHHH”, “not soluble”. In the case of “MKLSRISAINWNKIQDDKDLEVWNRLTSNFWLPEKVPLSNDIPAWQTLSAAEQQLTIRVFTGLTLLDTIQNIAGAPSLMADAITPHEEAVLSNISFMEAVHARSYSSIFSTLCQTKEVDAAYAWSEENPPLQRKAQIILAHYVSDEPLKKKIASVFLESFLFYSGFWLPMYFSSRGKLTNTADLIRLIIRDEAVHGYYIGYKYQIALQKLSAIEREELKLFALDLLMELYDNEIRYTEALYAETGWVNDVKAFLCYNANKALMNLGYEALFPPEMADVNPAILAALSPNADENHDFFSGSGSSYVMGKTVETEDEDWNF”, the “soluble on expression in E. coli” value is given as “soluble”. On to “MKLTPKELDKLMLHYAGELAKKRKEKGIKLNYVEAVALISAHIMEEARAGKKTAAELMQEGRTLLKPDDVMDGVASMIHEVGIEAMFPDGTKLVTVHTPIEANGKLVPGELFLKNEDITINEGKKAVSVKVKNVGDRPVQIGSHFHFFEVNRCLDFDREKTFGKRLDIAAGTAVRFEPGEEKSVELIDIGGNRRIFGFNALVDRQADNESKKIALHRAKERGFHGAKSDDNYVKTIKE”, for which the “soluble on expression in E. coli” value is listed as “soluble”. In the case of “MKMELKEGGKIFFRWFRKTFGEEVTDEGIIHRLEPPNLIEFSWNTYEDGFRSRVKMEFFPSSYNGTWVQVEDHTIVLNEEDMKIKLECAVGWGEMLTLAKIWIEYGISTLENP” it was “not soluble”; in that of “MKMINKLIVPVTASALLLGACGASATDSKENTLISSKAGDVTVADTMKKIGKDQIANASFTEMLNKILADKYKNKVNDKKIDEQIEKMQKQYGGKDKFEKALQQQGLTADKYKENLRTAAYHKELLSDKIKISDSEIKEDSKKASHILIKVKSKKSDKEGLDDKEAKQKAEEIQKEVSKDPSKFGEIAKKESMDTGSAKKDGELGYVLKGQTDKDFEKALFKLKDGEVSEVVKSSFGYHIIKADKPTDFNSEKQSLKEKLVDQKVQKNPKLLTDAYKDLLKEYDVDFKDRDIKSVVEDKILNPEKLKQGGAQGGQSGMSQ”, “soluble”.

Consider “MKMNYHLSTSSYTTSMLSCTVLDDDIRYEKLSWKLDEAEMQGLIM”, for which the “soluble on expression in E. coli” value is given as “soluble”. “MKNDRTLQAIGRQLKAMGCERFDIGVRDATTGQMMNREWSAAEVLQNTPWLKRMNAQGNDVYIRPAEQERHGLVLVDDLSEFDLDDMKAEGREPALVVETSPKNYQAWVKVADAAGGELRGQIARTLASEYDADPASADSRHYGRLAGFTNRKDKHTTRAGYQPWVLLRESKGKTATAGPALVQQAGQQIEQAQRQQEKARRLASLELPERQLSRHRRTALDEYRSEMAGLVKRFGDDLSKCDFIAAQKLASRGRSAEEIGKAMAEASPALAERKPGHEADYIERTVSKVMGLPSVQLARAELARAPAPRQRGMDRGGPDFSM”: the “soluble on expression in E. coli” value is recorded as “soluble”. In the case of “MKNIAIIGASGYTGAQLTALVHAESELSIQGLYVSENSLDKGRALADLYPVYSHIELTLSPLTEEAKANIVAEADAVVLATEHSVSLHLAAWFYSQGLAVFDLSGAYRFSDVAQYPKWYGFEHEYPEVLAKAVYGLAEWNAKDVAATKMIAVPGCYPTASLTALKPLKNLLTSAYPVINAVSGVTGAGRKAQLHTSFCEVSLTPYGVLGHRHQPEIATQLGQEVIFTPHLGNFKRGILATITVQLKPGTTTADVAAAYSVYDQAPLVTVKQNQFPKVDDVVLTPNCHLGWKFDESSGYLVVASAIDNLMKGAASQALQCIKIHFNL” it was “not soluble”. In the case of “MKNICFINGSPRSKKANSTLYLNLIDKSLDSKNYTKYYIDTTSSIKGDLESTFKTLLDADYIILAFPLYVYSMPSLLVRFLEDYYIYLKNKDTISQKTNLYAVVNCGFPDAKMNVEALKIVFNCCKKLNINFRFGIGIGAGEFVNFSKNNPLLNKLSSCVYKSINKITYDIENQVSIEINNIFVNPKIPRRLFFIFGHIFWKKWAKRNGIKISALFDKPLEHHHHHH” it was “not soluble”; in that of “MKNIIRTPETHPLTWRLRDDKQPVWLDEYRSKNGYEGARKALTGLSPDEIVNQVKDAGLKGRGGAGFSTGLKWSLMPKDESMNIRYLLCNADEMEPGTYKDRLLMEQLPHLLVEGMLISAFALKAYRGYIFLRGEYIEAAVNLRRAIAEATEAGLLGKNIMGTGFDFELFVHTGAGRYICGEETALINSLEGRRANPRSKPPFPATSGVWGKPTCVNNVETLCNVPAILANGVEWYQNISKSKDAGTKLMGFSGRVKNPGLWELPFGTTAREILEDYAGGMRDGLKFKAWQPGGAGTDFLTEAHLDLPMEFESIGKAGSRLGTALAMAVDHEINMVSLVRNLEEFFARESCGWCTPCRDGLPWSVKILRALERGEGQPGDIETLEQLCRFLGPGKTFCAHAPGAVEPLQSAIKYFREEFEAGIKQPFSNTHLINGIQPNLLKERWLEHHHHHH”, “not soluble”; in that of “MKNLAIFDLDNTLINTDSDHAWPQYLIKKGLVDAAETEAQNEKFYRDYQNGCLDIDAFLKFHLAPLARYSKEELAEFHREFMAEYIIPHISPMQRMLVQSHQMAGDETLVISSTNEFIITPVCHLFGITNIIGTQLETGSDGRYTGNYIGTPSLKEGKITRLNQWLAERGETLQSYGKTYFYSDSKNDLPLLRLVSEPVAVNPDAELEKEAKEKGWPVLNFK”, “soluble”. As to “MKNLINWFEIPVTDMARAIAFYEQVMQISLRRETMDGADLAVFPYAEPGPGGALIKQDDVAPVAQGVVIYLHTADLLASIERVVLAGGKCVLEPMVPGDDIGTIALFIDSEGNRIGLHQPALEHHHHHH”, the “soluble on expression in E. coli” value was “not soluble”.

Turning to “MKNLTTIKQTNKNVKQERRKKYADLAIQGTNNSSIASKRSVELLYLPKLSSANNFQMDKNNKLLEYFKFFVPKKIKRSPCINRGYWLRLFAIRSRLNSIIEQTPQDKKIVVVNLGCGYDPLPFQLLDTNNIQSQQYHDRVSFIDIDYSDLLKIKIELIKTIPELSKIIGLSEDKDYVDDSNVDFLTTPKYLARPCDLNDSKMFSTLLNECQLYDPNVVKVFVAEVSLAYMKPERSDSIIEATSKMENSHFIILEQLIPKGPFEPFSKQMLAHFKRNDSPLQSVLKYNTIESQVQRFNKLGFAYVNVGDMFQLWESADEATKKELLKVEPFDELEEFHLFCHHYVLCHATNYKEFAFTQGFLFDRSISEINLTVDEDYQLLECECPINRKFGDVDVAGNDVFYMGGSNPYRVNEILQLSIHYDKIDMKNIEVSSSEVPVARMCHTFTTISRNNQLLLIGGRKAPHQGLSDNWIFDMKTREWSMIKSLSHTRFRHSACSLPDGNVLILGGVTEGPAMLLYNVTEEIFKDVTPKDEFFQNSLVSAGLEFDPVSKQGIILGGGFMDQTTVSDKAIIFKYDAENATEPITVIKKLQHPLFQRYGSQIKYITPRKLLIVGGTSPSGLFDRTNSIISLDPLSETLTSIPISRRIWEDHSLMLAGFSLVSTSMGTIHIIGGGATCYGFGSVTNVGLKLIAIAK”, the “soluble on expression in E. coli” value is “soluble”. In the case of “MKNNKDEKIRISIINGFLGSGKTTLLTHYISELLKNDEKIKIIMNEFGTFDIDSNSISNEIEVHSLINGCVCCDLKQELVYELKAIALKGDVNHVIIETTGIAHPLELLVACQDPQIVNFFEKPIIYGVLDATRFLERHQYTENTVSLMEDQLKLSDMIIINKIDLITDDRLERIDKQLGMICASIPTYKTTYGKVSLEELDLTVKDREISSHHHHHHGIKSMTYTFTGPIDRQLFYQFIMKLPESVLRLKGYVSFRDQPNAIYEFQYAYGLPDYGIIGMQLPLTIVIIGETLDTNHIRNQLDMLQFT” it was “not soluble”.
